27 molecules from US20110059504A1 (GENERAL HOSPITAL, published 2011) can be followed below.

Sequences and labels used below:
T1: human myostatin (human, UniProt O14793 267-375, biotinylated in selections and radioactive assays (site not stated))
T1 construct: Phage ELISA used both unbiotinylated and biotinylated myostatin; also called biotinylated human myostatin; myostatin-biotin
T1 sequence (looked up): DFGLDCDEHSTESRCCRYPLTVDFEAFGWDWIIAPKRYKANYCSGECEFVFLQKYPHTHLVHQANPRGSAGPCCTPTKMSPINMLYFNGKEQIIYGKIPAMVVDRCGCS

B1: 61363-C1 (G17D) (designed binder)
chain: MTIPEIIIKVRGTQVVDSDMTVIVEFTDTVLEILRTVWVHLDGPGVTRPMKKMFPHIRPKVTVQWEEVVRPWVSGHRKLIASMLIASLRHVYGELDVQIQRRDYKDDDDK
notes: group N3; G17D
B2: 61362-C6 (designed binder)
chain: MTIPEIIIKVRGTQVVGSDMTVIVEFTNPLNEPLLFVWVHLDGPGVTRPMKKMFRIISPHATVQWEEVVRPWVSGHRKLIASMSIGFQAHVYGELDVQIQRRDYKDDDDK
notes: group N1
B3: 45927-A10 (designed binder)
chain: MTIPEIIIKVRGTQVVGSDMTVIVEFTNPKRDTSVWLRNVWVHLDGPGVTRPMKKMFFTIGYPSTVQWEEVVRPWVSGRRKLIASMSPSILSKGNIGLGVYGELDVQIQRRDYKDDDDK
notes: group M3-Aext; H76R (wild type scaffold numbering)
B4: 45927-E5 (designed binder)
chain: MTIPEIIIKVRGTQVVGSDMTVIVEFTNPSNYRPCILRNVWVHLDGPGVTRPMKKMFKMIVYHSTVQWEEVVRPWVSGHRKLIASMSKFELSGTSSRGRVYGELDVQIQRRDYKDDDDK
notes: group M3-Aext
B5: 39633-D5 (designed binder)
chain: MTIPEIIIKVRGTQVVGSDMTVIVEFTNPFKETLRSVWVHLDGPGVTRPMKKMFREIPPKTTVQWEEVVRPWVSGHRKLIASMCEPSLDHVYGELDVQIQRRDYKDDDDK
notes: group M4-A50; also called 39633-D5/yes
B6: 39633-D6 (designed binder)
chain: MTIPEIIIKVRGTQVVGSDMTVIVEFTNPFKETLRNVWVHLDGPGVTRPMKKMFCEIRPNSIVQWEEVVRPWVSGHRKLIARCSLSPWHVYGELDVQIQRRDYKDDDDK
notes: group M3-A50; ΔS82, M83R; also called M020 (clone ID)
B7: 39908-A2 (designed binder)
chain: B6 chain with C55R, E56D, N60K, S61T, I62K
notes: group M3-A50; ΔS82, M83R; also called M03 (clone ID)
B8: 39908-F5 (designed binder)
chain: B6 chain with S84Q, S86L
notes: group M3-A50; ΔS82, M83R; also called M16 (clone ID)
B9: 39908-B2 (designed binder)
chain: B6 chain with N36S, C55R, R58P, N60K, S61T, I62T, S84Q, S86L
notes: group M3-A50; ΔS82, M83R; also called M07 (clone ID)
B10: 39908-A7 (designed binder)
chain: B6 chain with T27S, C83M, S84T, S86R
notes: group M3-A50; ΔS82, M83R; also called M24 (clone ID)
B11: 39633-A5 (V46I) (designed binder)
chain: B6 chain with T27S, V46I, I57V
notes: group M3-A50; ΔS82, M83R, V46I
B12: 39908-A1 (designed binder)
chain: B6 chain with T27S
notes: group M3-A50; ΔS82, M83R; also called M02 (clone ID)
B13: 39633-G6 (designed binder)
chain: B6 chain with N36S, C55R, R58P, N60K, S61T, I62T, R82S, C83M, S84T, S86R
notes: group M3-A50; FG loop printed -TLRPW (one residue deleted), no scaffold mutation printed; also called M18 (clone ID)
B14: 39908-A3 (designed binder)
chain: B6 chain with N36S, S61R
notes: group M3-A50; ΔS82, M83R; also called M09 (clone ID)
B15: 39908-C6 (designed binder)
chain: B6 chain with N36S
notes: group M3-A50; ΔS82, M83R; also called M05 (clone ID)
B16: 39908-E5 (designed binder)
chain: B6 chain with T27S, C55S, I62T
notes: group M3-A50; ΔS82, M83R; also called M56 (clone ID)
B17: 39908-C11 (designed binder)
chain: B6 chain with T27S, C55S, P59T, S61A, I62T
notes: group M3-A50; ΔS82, M83R; also called M22 (clone ID)
B18: 39908-D2 (designed binder)
chain: B6 chain with N36S, C55R, R58P, N60K, S61T, I62T
notes: group M3-A50; ΔS82, M83R; also called M29 (clone ID)
B19: 39908-H4 (designed binder)
chain: B6 chain with T27S, C55R, E56D, N60K, S61T, I62K, S84Q, S86L
notes: group M3-A50; ΔS82, M83R; also called M015 (clone ID)
B20: 39633-F4 (designed binder)
chain: MTIPEIIIKVRGTQVVGSDMTVIVEFSNPFKETLRNVWVHLDGPGVTRPMKKMFCEIRPNSIVQWEEVVRPWVSGHRKLIASMRTQYLIHLYGELDVQIQRRDYKDDDDK
notes: group M1-A50; V91L
B21: 39633-E2 (designed binder)
chain: B20 chain with I57V, I62V
notes: group M1-A50; V91L
B22: 39908-E1 (designed binder)
chain: MTIPEIIIKVRGTQVVGSDMTVIVEFTNLWKEALRNVWMHLDGPGVTRPMKKMFREIATMSTVQWEEVVRPWVSGHRKLIASMTLRPWHVYGELDVQIQRRDYKDDDDK
notes: group M3-A50; FG loop -TLRPW; V39M; also called M04 (clone ID)
B23: 45927-A12 (designed binder)
chain: MTIPEIIIKVRGTQVVGSDMTVIVEFTNPLRVSEQTLRNVWVHLDGLGVTRPMKKMFGGIRVHSTVQWEEVVRPWVSGHRKLIASMSYVAEYGEWTHYSVYGELDVQIQRRDYKDDDDK
notes: group M3-Aext
B24: 39633-B3 (designed binder)
chain: MTIPEIIIKVRGTQVVGSDMTVIVEFTNPLSQTLSAVWVHLDGPGVTRPMKKMFREIPPKTTVQWEEVVRPWVSGHRKLIASMRTQYLIHLYGELDVQIQRRDYKDDDDK
notes: group M1-A50; V91L
B25: 39908-F8 (K52R) (designed binder)
chain: B24 chain with L30F, S31K, Q32E, S35R, A36S, K52R, K60E
notes: group M1-A50; V91L, K52R
B26: 39633-C5 (designed binder)
chain: B24 chain with L30F, S31K, Q32E, S35R, A36S, E56V
notes: group M1-A50; V91L; also called M34 (clone ID)
B27: 39633-F5 (I3Y, M83I) (designed binder)
chain: B24 chain with I3Y, L30F, S31K, Q32E, S35R, A36S, M83I
notes: group M1-A50; V91L, I3Y, M83I

Changes are numbered by the printed parent chain. Names and notes keep the numbering of the source.

For one assay, the target named is T2, streptavidin beads (M-280 beads) (UniProt P22629 37-163, limits assumed).
T2 construct: Capture beads used as negative control
T2 sequence (P22629 37-163 limits assumed): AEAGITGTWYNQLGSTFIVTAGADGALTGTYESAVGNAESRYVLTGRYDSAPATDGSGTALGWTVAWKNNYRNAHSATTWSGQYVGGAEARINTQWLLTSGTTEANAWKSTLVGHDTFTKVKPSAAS
Description: radioactive equilibrium binding assay.
Consider B1, for which the binding result is reported as “no binding”.

As for B2, the binding result is “no binding”.

Another assay concerns the target T1, human myostatin. Kind of assay: radioactive equilibrium binding assay. The method, then:
(§1) Affinities of selected F13β2 binders to biotinylated myostatin were determined in radioactive equilibrium binding assay (FIGS. 11A and 11B; Table 3). ³⁵S-labeled binder proteins from selection pools and single clones were produced in vitro in a rabbit reticulocyte lysate translation kit (Ambion) and purified on M2-agarose (Sigma). Varying concentrations of biotinylated human myostatin (0-100 nM) or other proteins (protein 1: 100 nM; peptide 1: 250 nM; protein 2: 50 nM) were incubated with a constant concentration of the purified binder protein (1 or 2 nM) at 30° C. for 30 min in buffer B (1×PBS, 0.02% Triton X-100 [pH 7.4]). The receptor-binder complexes were captured by using 25 μl of M280 or Protein A (Dynal) (protein 2) magnetic beads for 10 min at room temperature on a Kingfisher instrument (Thermo Fisher Scientific). The beads were washed five times with 100 μl buffer B, and the amount of ³⁵S-methionine remained on the beads was measured by scintillation counting. Data were analyzed by using the GraphPad Prism software (GraphPad Software, Inc., San Diego, Calif.), fitted with a one-site, nonlinear binding equation. For inhibition assay the binding of ³⁵S-labeled proteins to 20 or 25 nM of biotinylated human myostatin was performed in the presence of varying concentrations of inhibitor (human activin receptor IIB/Fc chimera (R&D Systems, Minneapolis, Minn.) (0-250 nM); protein 1 (100 nM), peptide 1 (250 nM), protein 2 (50 nM); proteins, produced in E. coli, M17, M7, M29, M21, M1-1, WT F13β2 (500 nM)).
For the molecule B3, the B max turned out to be 8.07% and the dissociation constant Kd came out at 16.1 nM.

B4: the B max was found to be 8.36% and the Kd amounted to 64.1 nM.

As to B5, the B max was determined as 6.91% and the Kd was 8.69 nM.

In the case of B6, the B max was 79.6% and the Kd stood at 20.3 nM.

B7: the B max came to 68.5% and the Kd amounted to 15.2 nM.

With B8, the B max stood at 67.2% and the dissociation constant (Kd) was 27.1 nM.

On to B9, for which the B max stood at 75.9% and the dissociation constant Kd is 27.1 nM.

As to B10, the B max worked out at 109% and the Kd came to 20.1 nM.

Take B11: the B max worked out at 78.3% and the dissociation constant (Kd) is 19.4 nM.

Consider B12, for which the B max came out at 50.2% and the equilibrium dissociation constant (Kd) came to 12 nM.

For B13, the B max worked out at 75.1% and the dissociation constant Kd was determined as 19.7 nM.

Take B14: the B max is 57.2% and the equilibrium dissociation constant (Kd) worked out at 11 nM.

B15: the B max is 52.2% and the Kd was 19.7 nM.

Consider B16, for which the B max was found to be 77.8% and the Kd was 21.9 nM.

Regarding B17, the B max worked out at 73.7% and the dissociation constant Kd was found to be 17 nM.

Regarding B18, the B max was 68.8% and the Kd came out at 23.3 nM.

As for B19, the B max was found to be 68.6% and the dissociation constant Kd is 15.8 nM.

B20: the B max is 28.5% and the Kd came to 26.8 nM.

Regarding B21, the B max amounted to 21% and the Kd was found to be 27.3 nM.

For the molecule B22, the B max is 40.2% and the Kd was determined as 14.8 nM.

With B23, the B max was 3.08% and the Kd was 1.47 nM.

As to B24, the B max turned out to be 6.14% and the Kd amounted to 9.93 nM.

Consider B25, for which the B max amounted to 45.7% and the dissociation constant (Kd) worked out at 36.6 nM.

As to B26, the B max worked out at 93% and the dissociation constant Kd is 30.8 nM.

Consider B27, for which the B max was determined as 69.7% and the dissociation constant Kd is 32.1 nM.

A further assay deals with T3, human β-NGF (human, UniProt P01138 122-241, biotinylated (site not stated)).
T3 construct: also called biotinylated human β-NGF; nerve growth factor
T3 sequence (P01138 122-241 limits assumed): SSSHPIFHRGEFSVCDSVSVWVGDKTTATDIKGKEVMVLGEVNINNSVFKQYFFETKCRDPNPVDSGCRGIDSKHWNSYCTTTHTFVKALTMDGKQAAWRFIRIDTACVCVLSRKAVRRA
Kind of assay: radioactive equilibrium binding assay. The method, then:
as §1
Selected F13β2 binders were tested for binding to biotinylated β-NGF in radioactive equilibrium binding assay (FIGS. 21A and 21B; Table 4) according to the procedure described for myostatin binders. NGF at concentrations up to 100 nM was incubated with a constant concentration of the purified binder protein (1 or 2 nM) at 30° C. for 1 hour. Affinities to human β-NGF differed greatly between various binders.
Turning to B1, the B max turned out to be 1.8% and the Kd stood at 2.8 nM.

For B2, the B max turned out to be 5.5% and the Kd is 24 nM.
